Target: human neutrophil peptide-1 (HNP-1)
Sequence (chain, as listed by the source): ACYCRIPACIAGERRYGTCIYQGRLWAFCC

B1: arginine-specific mono-ADP-ribosyltransferase-1 (ART1), mART1 released from transfected NMU cells (protein)
chain: QSYSISQLDIFSQETPLDMAPASFDDQYAGCLADMTAALPDLNHSEFQANKVYADGWAQANNQWQERRAWGSVWGSLPPSPPGFRDEHGVALLAYTANSPLHKEFNAAVREAGRSRAHYLHHFSFKTLHFLLTEALQLLRSHRSRGCQQVYRGVHGLRFRPAGPGATVRLGGFASASLKNVAAQQFGEDTFFGIWTCLGAPIRGYSFFPEEEEVLIPPFETFQVINTSRPTQGPARIYLRALGKRSTYNCEYIKEKKCRSGPCWLGSS
B1 was tested, and the “ADP-ribosylation of HNP-1 by ART1 in vitro (RP-HPLC and MS of the reaction products)” value was “HNP-1 was ADP-ribosylated in vitro using purified ART1”.

Reference: US20120164123
